What was measured:
[1] = molecular target: T1, FGFR3-G394D (Homo sapiens, UniProt P22607, G382D); experiment: FGF-stimulated growth of B9 cells expressing G394D-FGFR3; type: cell-based
T1 construct: expressed in transfected cells; host or cells: B9 cells
Procedure: (§1) Non-transformed rat chondrocyte cell line expressing PGFR3 in an inducible manner (RCJ-FGFR3) has been described previously (Rauchenberger R. et al. J. Biol. Chem. 2003; 278:38194-205). Cells were maintained in α-Minimum Essential Media supplemented with 15% fetal calf serum (FCS), 2 mM L-Glutamine, 100 U/ml penicillin, 100 μg/ml streptomycin, 600 μg/ml G418 (Gibco BRL, Ontario, Canada), 2 μg/ml Tetracyclin (Sigma, Ontario, Canada), and 50 μg/ml HygromycinB (Gibco BRL). FGFR3 expression was induced by removal of tetracyclin and serum starvation. […]
(§2) Cell viability was assessed by 3-(4,5-dimethylthiazol)-2,5-diphenyl tetrazolium (MTT) or (2,3-bis(2-methoxy-4-nitro-5-sulphophenyl)-5-[(phenylamino) carbonyl]-2H-tetrazolium hydroxide (XTT) dye absorbance where indicated. Cells were seeded in 96-well plates at a density of 20,000 (FDCP-1 cells), 5,000 (B9 cells) or 25,000 cells (MM cell lines) per well in culture medium. Cells were incubated in the absence or presence of one of the following cytokines: 10 ng/ml FGF9 and 5 μg/ml heparin, 1% murine IL-6, 50 ng/ml IGF-1 or 50 ng/ml human IL-6 where indicated and increasing concentrations of PRO-001, control antibody (purified human Fab) or 100 nM PD173074. […]

[2] = molecular target: FGFR3 (Homo sapiens, UniProt P22607); experiment: Flow cytometry staining of primary myeloma cells expressing FGFR3; type: binding; parameters: endogenous in cells; host or cells: primary myeloma cells from bone marrow of t(4;14)-positive MM patients; details: versus isotype control
Procedure: FIGS. 6 A-B are flow cytometry charts of human primary myeloma cells treated with anti-FGFR antibody PRO-001. A: Freshly isolated BMSCs were stained with PRO-001 (black line) or control antibody (grey line) and then stained with PE-conjugated anti-human secondary antibody. B: Primary myeloma cells were incubated in the absence (filled) or presence of FGF (light line) or pre-incubated with 5 μg/ml PRO-001 (dark line) for 2 h and then stimulated with FGF. ERK1/2 phosphorylation was assessed by flow cytometry analysis.
Cells (5×10^5) were washed in cold phosphate-buffered saline (PBS) and then incubated for 30 minutes with one of the following: PRO-001 Fab or a human Fab control antibody, rabbit anti-FGFR3 (100) or rabbit preimmune serum in PBS. The cells were then stained with PE-conjugated goat antihuman F(ab′)2 secondary antibody or goat anti-rabbit IgG-PE for 30 minutes on ice. Flow cytometry was performed on a FACSCaliber flow cytometer (BD Biosciences, San Jose, Calif.) and analyzed using Cellquest software (Becton Dickinson). To assess the ability of FGF ligand to compete for binding, cells were incubated in the presence or absence of 30 ng/ml FGF and 5 μg/ml heparin for 30 minutes and then stained with PRO-001 Fab as describe above.
The next experiments were designed to examine the effect of PRO-001 on primary human MM cells. […]

[3] = molecular target: T2, FGFR3^S249C (Homo sapiens, UniProt P22607, S249C); experiment: FGF-independent proliferation of FDCP-FGFR3^S249C cells in vitro (XTT); type: cell-based; details: two days
T2 construct: was transfected with full length FGFR1 (FDCP-FGFR1), FGFR2 (FDCP-FGFR2), FGFR3 (FDCP-FGFR3) or FGFR3^S249C mutant cDNAs; expressed in transfected cells; host or cells: FDCP-1 mouse myeloid progenitor cell line
Procedure: FIG. 8A is a graph showing viability of FDCP-FGFR3^S249C. Cells were cultured in the presence of increasing amounts of PRO-001 or a control antibody (C) for two days. Cell proliferation was determined by XTT analysis. Data are the average of duplicate cultures.
as §1, with “BRL).” for “BRL). FGFR3 expression was induced by removal of tetracyclin and serum starvation.”
as §2

[4] = molecular target: T3, FGFR3-F384L (Homo sapiens, UniProt P22607, F384L); experiment: FGF-stimulated growth of B9 cells expressing FGFR3 mutant F384L; type: cell-based
T3 construct: expressed in transfected cells; host or cells: B9 cells
Procedure: as §1, §2

T1 sequence (P22607 23-806 G382D): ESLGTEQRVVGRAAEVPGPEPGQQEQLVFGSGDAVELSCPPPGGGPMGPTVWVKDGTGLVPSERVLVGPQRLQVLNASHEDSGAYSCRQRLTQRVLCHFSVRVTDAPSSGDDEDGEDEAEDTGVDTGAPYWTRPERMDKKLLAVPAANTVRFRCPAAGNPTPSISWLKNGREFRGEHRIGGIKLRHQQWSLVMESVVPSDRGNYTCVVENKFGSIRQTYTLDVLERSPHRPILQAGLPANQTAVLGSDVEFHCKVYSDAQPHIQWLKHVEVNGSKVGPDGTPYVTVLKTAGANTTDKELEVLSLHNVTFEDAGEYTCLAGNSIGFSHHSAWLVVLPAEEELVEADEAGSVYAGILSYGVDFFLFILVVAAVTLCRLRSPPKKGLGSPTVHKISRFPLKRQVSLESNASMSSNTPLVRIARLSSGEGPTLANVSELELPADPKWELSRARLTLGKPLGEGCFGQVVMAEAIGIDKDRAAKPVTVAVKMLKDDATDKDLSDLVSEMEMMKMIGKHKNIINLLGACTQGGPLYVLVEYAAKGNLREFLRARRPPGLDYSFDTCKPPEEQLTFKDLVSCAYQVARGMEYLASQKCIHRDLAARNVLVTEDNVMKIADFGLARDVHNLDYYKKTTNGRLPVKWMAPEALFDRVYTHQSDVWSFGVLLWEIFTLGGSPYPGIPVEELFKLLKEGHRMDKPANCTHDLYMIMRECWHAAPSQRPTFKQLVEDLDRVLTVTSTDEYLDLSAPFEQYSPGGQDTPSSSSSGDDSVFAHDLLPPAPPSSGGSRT
T2 sequence (P22607 23-806 S249C): as the sequence (P22607 23-806 G382D) above, with S227C, D360G counted along it
T3 sequence (P22607 23-806 F384L): as the sequence (P22607 23-806 G382D) above, with D360G, F362L counted along it
Chain of FGFR3 (P22607 23-806): as the sequence (P22607 23-806 G382D) above, with D360G counted along it

B1: PRO-001: human anti-FGFR3 Fab from HuCAL library; VH-CDR3 SEQ ID NO:1, VL-CDR3 SEQ ID NO:10; VH SEQ ID NO:19, VL SEQ ID NO:28 (antibody, V domains shown)
VH: QVQLQQSGPGLVKPSQTLSLTCAISGDSVSSNSAAWNWIRQSPGRGLEWLGRTYYRSKWYNDYAVSVKSRITINPDTSKNQFSLQLNSVTPEDTAVYYCARSYYPDFDYWGQGTLVTVSS
VL: DIELTQPPSVSVAPGQTARISCSGDALGDKYASWYQQKPGQAPVLVIYDDSDRPSGIPERFSGSNSGNTATLTISGTQAEDEADYYCQSYDGPDLWVFGGGTKLTVLGQ
IC50, FGF-stimulated growth of cells expressing G394D-FGFR3 [1]: approximately 3 μg/ml | Staining of primary cells expressing FGFR3 [2]: identified | FGF-independent proliferation of FDCP-FGFR3^S249C in vitro [3]: efficiently blocked | IC50, FGF-stimulated growth of B9 cells expressing FGFR3 mutant F384L [4]: approximately 3 μg/ml
